Reference: patent US11833164B2, “Methods of treating Fabry disease in patients having a mutation in the GLA gene” (Amicus Therapeutics, Inc., priority 2019, dated 2023)
Residue numbers refer to the chain shown, from its start. Names and notes keep the numbering of the source.

Test system: mutant form of α-Gal A expressed in HEK-293 cells
Assay: HEK assay (GLP HEK / Migalastat Amenability Assay): α-Gal A activity in lysates of transiently transfected HEK-293 cells incubated with or without 10 μM migalastat
Assay type: cell-based, human
Conditions: for Absolute increase (% WT) / Relative increase: 10 μM migalastat versus baseline; for Baseline α-Gal A activity (% WT): absence of migalastat; for Baseline α-Gal A activity (% WT) / 10 μM migalastat α-Gal A activity (% WT): percentage of baseline wild-type α-Gal A activity; for 10 μM migalastat α-Gal A activity: incubated 5 days with 10 μM migalastat; for 10 μM migalastat α-Gal A activity (% WT): with 10 μM migalastat, 5 days
Outline: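 Activity reported as 4-MU released (nmol/mg/hr), mean±SEM, from lysates of transiently transfected HEK-293 cells expressing mutant α-Gal A, cultured with or without 10 μM migalastat.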

[1] = lysates of HEK-293 cells transiently transfected with the mutant form, incubated 5 days in absence of migalastat, mean ± SEM
[2] = lysates of HEK-293 cells transiently transfected with the mutant form, mean ± SEM

B1: K326T (protein)
chain: MQLRNPELHLGCALALRFLALVSWDIPGARALDNGLARTPTMGWLHWERFMCNLDCQEEPDSCISEKLFMEMAELMVSEGWKDAGYEYLCIDDCWMAPQRDSEGRLQADPQRFPHGIRQLANYVHSKGLKLGIYADVGNKTCAGFPGSFGYYDIDAQTFADWGVDLLKFDGCYCDSLENLADGYKHMSLALNRTGRSIVYSCEWPLYMWPFQKPNYTEIRQYCNHWRNFADIDDSWKSIKSILDWTSFNQERIVDVAGPGGWNDPDMLVIGNFGLSWNQQVTQMALWAIMAAPLFMSNDLRHISPQAKALLQDKDVIAINQDPLGTQGYQLRQGDNFEVWERPLSGLAWAVAMINRQEIGGPRSYTIAVASLGKGVACNPACFITQLLPVKRKLGFYEWTSRLRSHINPTGTVLLQLENTMQMSLKDLL
  Absolute increase (% WT): 26.4 % WT
  Relative increase: 1.4
Mean ± SEM
  Baseline α-Gal A activity (% WT): 69.6 ± 2.4 % WT
  10 μM migalastat α-Gal A activity (% WT): 96 ± 3.7 % WT
[1]
  Baseline α-Gal A activity: 19442 ± 739 nmol/mg/h
[2]
  10 μM migalastat α-Gal A activity: 26653 ± 877 nmol/mg/h

B2: L331V (protein)
chain: B1 chain with T326K, L331V
  Absolute increase (% WT): 28.0 % WT
  Relative increase: 1.3
Mean ± SEM
  Baseline α-Gal A activity (% WT): 89.4 ± 4.5 % WT
  10 μM migalastat α-Gal A activity (% WT): 117.4 ± 5.6 % WT
[1]
  Baseline α-Gal A activity: 25163 ± 801 nmol/mg/h
[2]
  10 μM migalastat α-Gal A activity: 33050 ± 967 nmol/mg/h

B3: Q333L (protein)
chain: B1 chain with T326K, Q333L
  Absolute increase (% WT): 24.7 % WT
  Relative increase: 1.3
Mean ± SEM
  Baseline α-Gal A activity (% WT): 68.6 ± 2.9 % WT
  10 μM migalastat α-Gal A activity (% WT): 93.3 ± 4.1 % WT
[1]
  Baseline α-Gal A activity: 25450 ± 2094 nmol/mg/h
[2]
  10 μM migalastat α-Gal A activity: 33727 ± 1965 nmol/mg/h

B4: Q327P (protein)
chain: B1 chain with T326K, Q327P
  Absolute increase (% WT): 36.4 % WT
  Relative increase: 2.4
Mean ± SEM
  Baseline α-Gal A activity (% WT): 26.2 ± 1.8 % WT
  10 μM migalastat α-Gal A activity (% WT): 62.6 ± 3.1 % WT
[1]
  Baseline α-Gal A activity: 7775 ± 561 nmol/mg/h
[2]
  10 μM migalastat α-Gal A activity: 18612 ± 1075 nmol/mg/h

B5: Y329D (protein)
chain: B1 chain with T326K, Y329D
  Absolute increase (% WT): 12.5 % WT
  Relative increase: 3.9
Mean ± SEM
  Baseline α-Gal A activity (% WT): 4.2 ± 0.2 % WT
  10 μM migalastat α-Gal A activity (% WT): 16.7 ± 0.6 % WT
[1]
  Baseline α-Gal A activity: 1249 ± 66 nmol/mg/h
[2]
  10 μM migalastat α-Gal A activity: 4917 ± 181 nmol/mg/h

B6: Y329H (protein)
chain: B1 chain with T326K, Y329H
  Absolute increase (% WT): 16.2 % WT
  Relative increase: 1.4
Mean ± SEM
  Baseline α-Gal A activity (% WT): 47.2 ± 3.8 % WT
  10 μM migalastat α-Gal A activity (% WT): 63.4 ± 2.6 % WT
[1]
  Baseline α-Gal A activity: 13757 ± 963 nmol/mg/h
[2]
  10 μM migalastat α-Gal A activity: 18672 ± 772 nmol/mg/h

B7: Q333E (protein)
chain: B1 chain with T326K, Q333E
  Absolute increase (% WT): 23.5 % WT
  Relative increase: 1.3
Mean ± SEM
  Baseline α-Gal A activity (% WT): 77.8 ± 5.3 % WT
  10 μM migalastat α-Gal A activity (% WT): 101.3 ± 7.6 % WT
[1]
  Baseline α-Gal A activity: 30291 ± 2094 nmol/mg/h
[2]
  10 μM migalastat α-Gal A activity: 38709 ± 2428 nmol/mg/h

B8: L331R (protein)
chain: B1 chain with T326K, L331R
  Absolute increase (% WT): 23.3 % WT
  Relative increase: 1.6
Mean ± SEM
  Baseline α-Gal A activity (% WT): 33.2 ± 1.5 % WT
  10 μM migalastat α-Gal A activity (% WT): 56.5 ± 3.2 % WT
[1]
  Baseline α-Gal A activity: 9725 ± 634 nmol/mg/h
[2]
  10 μM migalastat α-Gal A activity: 15841 ± 639 nmol/mg/h

B9: R332I (protein)
chain: B1 chain with T326K, R332I
  Absolute increase (% WT): 43.2 % WT
  Relative increase: 1.7
Mean ± SEM
  Baseline α-Gal A activity (% WT): 63.3 ± 4.5 % WT
  10 μM migalastat α-Gal A activity (% WT): 106.6 ± 6.4 % WT
[1]
  Baseline α-Gal A activity: 24614 ± 1678 nmol/mg/h
[2]
  10 μM migalastat α-Gal A activity: 41550 ± 2461 nmol/mg/h

B10: L331H (protein)
chain: B1 chain with T326K, L331H
  Absolute increase (% WT): 25.9 % WT
  Relative increase: 1.6
Mean ± SEM
  Baseline α-Gal A activity (% WT): 42 ± 3.2 % WT
  10 μM migalastat α-Gal A activity (% WT): 67.9 ± 4.3 % WT
[1]
  Baseline α-Gal A activity: 11743 ± 634 nmol/mg/h
[2]
  10 μM migalastat α-Gal A activity: 19003 ± 791 nmol/mg/h

B11: L331P (protein)
chain: B1 chain with T326K, L331P
  Absolute increase (% WT): 3.1 % WT
  Relative increase: 6.5
Mean ± SEM
  Baseline α-Gal A activity (% WT): 0.6 ± 0.1 % WT
  10 μM migalastat α-Gal A activity (% WT): 3.7 ± 0.2 % WT
[1]
  Baseline α-Gal A activity: 157 ± 20 nmol/mg/h
[2]
  10 μM migalastat α-Gal A activity: 1029 ± 32 nmol/mg/h

B12: Y329N (protein)
chain: B1 chain with T326K, Y329N
  Absolute increase (% WT): 15.6 % WT
  Relative increase: 1.7
Mean ± SEM
  Baseline α-Gal A activity (% WT): 21.8 ± 1.5 % WT
  10 μM migalastat α-Gal A activity (% WT): 37.4 ± 1.2 % WT
[1]
  Baseline α-Gal A activity: 6448 ± 436 nmol/mg/h
[2]
  10 μM migalastat α-Gal A activity: 11035 ± 429 nmol/mg/h

B13: R332S (protein)
chain: B1 chain with T326K, R332S
  Absolute increase (% WT): 20.5 % WT
  Relative increase: 1.2
Mean ± SEM
  Baseline α-Gal A activity (% WT): 87.6 ± 6.6 % WT
  10 μM migalastat α-Gal A activity (% WT): 108.1 ± 8.4 % WT
[1]
  Baseline α-Gal A activity: 33936 ± 2528 nmol/mg/h
[2]
  10 μM migalastat α-Gal A activity: 41700 ± 2778 nmol/mg/h

B14: Q327H (protein)
chain: B1 chain with T326K, Q327H
  Absolute increase (% WT): 7.4 % WT
[1]
  Baseline α-Gal A activity (nmol/mg/hr): BLD (“BLD” indicates that the mean α-Gal A activity was below the limit of detection (<142 nmol/mg/hr))
[2]
  10 μM migalastat α-Gal A activity: 2197 ± 226 nmol/mg/h
Mean ± SEM
  10 μM migalastat α-Gal A activity (% WT): 7.4 ± 0.7 % WT

B15: R332T (protein)
chain: B1 chain with T326K, R332T
  Absolute increase (% WT): 36.2 % WT
  Relative increase: 1.5
Mean ± SEM
  Baseline α-Gal A activity (% WT): 73.3 ± 2.9 % WT
  10 μM migalastat α-Gal A activity (% WT): 109.5 ± 4.7 % WT
[1]
  Baseline α-Gal A activity: 26141 ± 1254 nmol/mg/h
[2]
  10 μM migalastat α-Gal A activity: 39363 ± 2176 nmol/mg/h

B16: Q330E (protein)
chain: B1 chain with T326K, Q330E
  Absolute increase (% WT): 19.9 % WT
  Relative increase: 1.7
Mean ± SEM
  Baseline α-Gal A activity (% WT): 26.4 ± 1.5 % WT
  10 μM migalastat α-Gal A activity (% WT): 46.4 ± 2.6 % WT
[1]
  Baseline α-Gal A activity: 7500 ± 345 nmol/mg/h
[2]
  10 μM migalastat α-Gal A activity: 13086 ± 589 nmol/mg/h

B17: Q330H (protein)
chain: B1 chain with T326K, Q330H
  Absolute increase (% WT): 40.8 % WT
  Relative increase: 2.2
Mean ± SEM
  Baseline α-Gal A activity (% WT): 33.1 ± 2.8 % WT
  10 μM migalastat α-Gal A activity (% WT): 73.9 ± 3.6 % WT
[1]
  Baseline α-Gal A activity: 9296 ± 649 nmol/mg/h
[2]
  10 μM migalastat α-Gal A activity: 20752 ± 592 nmol/mg/h

B18: R332G (protein)
chain: B1 chain with T326K, R332G
  Absolute increase (% WT): 23.4 % WT
  Relative increase: 1.3
Mean ± SEM
  Baseline α-Gal A activity (% WT): 78.8 ± 2.7 % WT
  10 μM migalastat α-Gal A activity (% WT): 102.3 ± 4.6 % WT
[1]
  Baseline α-Gal A activity: 33043 ± 1431 nmol/mg/h
[2]
  10 μM migalastat α-Gal A activity: 42737 ± 1959 nmol/mg/h

B19: Q330K (protein)
chain: B1 chain with T326K, Q330K
  Absolute increase (% WT): 21.1 % WT
  Relative increase: 1.3
Mean ± SEM
  Baseline α-Gal A activity (% WT): 71 ± 2.7 % WT
  10 μM migalastat α-Gal A activity (% WT): 92.1 ± 4.2 % WT
[1]
  Baseline α-Gal A activity: 20289 ± 720 nmol/mg/h
[2]
  10 μM migalastat α-Gal A activity: 26149 ± 1074 nmol/mg/h

B20: Y329C (protein)
chain: B1 chain with T326K, Y329C
  Absolute increase (% WT): 7.8 % WT
  Relative increase: 1.3
Mean ± SEM
  Baseline α-Gal A activity (% WT): 31.2 ± 1.5 % WT
  10 μM migalastat α-Gal A activity (% WT): 38.9 ± 1.6 % WT
[1]
  Baseline α-Gal A activity: 9148 ± 414 nmol/mg/h
[2]
  10 μM migalastat α-Gal A activity: 11442 ± 480 nmol/mg/h

B21: Y329F (protein)
chain: B1 chain with T326K, Y329F
  Absolute increase (% WT): 16.6 % WT
  Relative increase: 1.5
Mean ± SEM
  Baseline α-Gal A activity (% WT): 30.6 ± 1.5 % WT
  10 μM migalastat α-Gal A activity (% WT): 47.1 ± 2.8 % WT
[1]
  Baseline α-Gal A activity: 10368 ± 646 nmol/mg/h
[2]
  10 μM migalastat α-Gal A activity: 15566 ± 603 nmol/mg/h
